In the Human Domainome abundance scans (Beltran et al. 2025):
± gives the uncertainty stated by the source.

B1: PDZ and LIM domain protein 2, residues 284 to 339; numbered along this chain, Q96JY6 (parent)
chain: HTCEKCSTSIANQAVRIQEGRYRHPGCYTCADCGLNLKMRGHFWVGDELYCEKHAR

Variants of: B1
Experiment: abundance fitness (aPCA) (normalised: wild type 0, dead -1); higher = more abundant; growth selection in yeast, the domain comes from the species named
Settings: Homo sapiens

HTCELCSTSIANQAVRIQEGRYRHPGCYTCADCGLNLKMRGHFWVGDELYCEKHAR and HTCEGCSTSIANQAVRIQEGRYRHPGCYTCADCGLNLKMRGHFWVGDELYCEKHAR are within error of each other in abundance fitness: 0.049 ± 0.12 for the first, -0.036 ± 0.057 for the second.

Compared with HTCEICSTSIANQAVRIQEGRYRHPGCYTCADCGLNLKMRGHFWVGDELYCEKHAR, HTCEFCSTSIANQAVRIQEGRYRHPGCYTCADCGLNLKMRGHFWVGDELYCEKHAR is lower in abundance fitness: 0.463 ± 0.14 for the first, -0.467 ± 0.34 for the second.

HTCEECSTSIANQAVRIQEGRYRHPGCYTCADCGLNLKMRGHFWVGDELYCEKHAR and HTCEACSTSIANQAVRIQEGRYRHPGCYTCADCGLNLKMRGHFWVGDELYCEKHAR are within error of each other in abundance fitness: 0.038 ± 0.13 for the first, 0.157 ± 0.11 for the second.

HTCECCSTSIANQAVRIQEGRYRHPGCYTCADCGLNLKMRGHFWVGDELYCEKHAR and HTCEDCSTSIANQAVRIQEGRYRHPGCYTCADCGLNLKMRGHFWVGDELYCEKHAR are within error of each other in abundance fitness: -0.068 ± 0.13 for the first, 0.181 ± 0.12 for the second.

HTDEKCSTSIANQAVRIQEGRYRHPGCYTCADCGLNLKMRGHFWVGDELYCEKHAR and HTGEKCSTSIANQAVRIQEGRYRHPGCYTCADCGLNLKMRGHFWVGDELYCEKHAR are within error of each other in abundance fitness: -1.02 ± 0.31 for the first, -1.17 ± 0.17 for the second.

HTVEKCSTSIANQAVRIQEGRYRHPGCYTCADCGLNLKMRGHFWVGDELYCEKHAR and HTREKCSTSIANQAVRIQEGRYRHPGCYTCADCGLNLKMRGHFWVGDELYCEKHAR are within error of each other in abundance fitness: -0.983 ± 0.18 for the first, -0.847 ± 0.059 for the second.

HTEEKCSTSIANQAVRIQEGRYRHPGCYTCADCGLNLKMRGHFWVGDELYCEKHAR and HTAEKCSTSIANQAVRIQEGRYRHPGCYTCADCGLNLKMRGHFWVGDELYCEKHAR are within error of each other in abundance fitness: -0.986 ± 0.23 for the first, -1.1 ± 0.2 for the second.

HTKEKCSTSIANQAVRIQEGRYRHPGCYTCADCGLNLKMRGHFWVGDELYCEKHAR and HTYEKCSTSIANQAVRIQEGRYRHPGCYTCADCGLNLKMRGHFWVGDELYCEKHAR are within error of each other in abundance fitness: -0.45 ± 0.12 for the first, -0.436 ± 0.13 for the second.

HTQEKCSTSIANQAVRIQEGRYRHPGCYTCADCGLNLKMRGHFWVGDELYCEKHAR and HTMEKCSTSIANQAVRIQEGRYRHPGCYTCADCGLNLKMRGHFWVGDELYCEKHAR are within error of each other in abundance fitness: -0.82 ± 0.13 for the first, -0.856 ± 0.096 for the second.

First: HTHEKCSTSIANQAVRIQEGRYRHPGCYTCADCGLNLKMRGHFWVGDELYCEKHAR
Second: HTPEKCSTSIANQAVRIQEGRYRHPGCYTCADCGLNLKMRGHFWVGDELYCEKHAR
The abundance fitness of the first is higher: -0.399 ± 0.18 for the first, -0.968 ± 0.15 for the second.

HTSEKCSTSIANQAVRIQEGRYRHPGCYTCADCGLNLKMRGHFWVGDELYCEKHAR and HTIEKCSTSIANQAVRIQEGRYRHPGCYTCADCGLNLKMRGHFWVGDELYCEKHAR are within error of each other in abundance fitness: -0.693 ± 0.11 for the first, -0.471 ± 0.25 for the second.

HTTEKCSTSIANQAVRIQEGRYRHPGCYTCADCGLNLKMRGHFWVGDELYCEKHAR and HTFEKCSTSIANQAVRIQEGRYRHPGCYTCADCGLNLKMRGHFWVGDELYCEKHAR are within error of each other in abundance fitness: -0.586 ± 0.09 for the first, -0.483 ± 0.11 for the second.

HTWEKCSTSIANQAVRIQEGRYRHPGCYTCADCGLNLKMRGHFWVGDELYCEKHAR and HTLEKCSTSIANQAVRIQEGRYRHPGCYTCADCGLNLKMRGHFWVGDELYCEKHAR are within error of each other in abundance fitness: -1.05 ± 0.2 for the first, -0.978 ± 0.16 for the second.

First: HTCRKCSTSIANQAVRIQEGRYRHPGCYTCADCGLNLKMRGHFWVGDELYCEKHAR
Second: HTCFKCSTSIANQAVRIQEGRYRHPGCYTCADCGLNLKMRGHFWVGDELYCEKHAR
The abundance fitness of the first is lower: -0.624 ± 0.052 for the first, 0.075 ± 0.1 for the second.

First: HTCPKCSTSIANQAVRIQEGRYRHPGCYTCADCGLNLKMRGHFWVGDELYCEKHAR
Second: HTCSKCSTSIANQAVRIQEGRYRHPGCYTCADCGLNLKMRGHFWVGDELYCEKHAR
The abundance fitness of the first is lower: -0.592 ± 0.065 for the first, 0.014 ± 0.063 for the second.

First: HTCWKCSTSIANQAVRIQEGRYRHPGCYTCADCGLNLKMRGHFWVGDELYCEKHAR
Second: HTCCKCSTSIANQAVRIQEGRYRHPGCYTCADCGLNLKMRGHFWVGDELYCEKHAR
The abundance fitness of the first is lower: -0.276 ± 0.12 for the first, 0.033 ± 0.099 for the second.

HTCDKCSTSIANQAVRIQEGRYRHPGCYTCADCGLNLKMRGHFWVGDELYCEKHAR and HTCHKCSTSIANQAVRIQEGRYRHPGCYTCADCGLNLKMRGHFWVGDELYCEKHAR are within error of each other in abundance fitness: -0.063 ± 0.17 for the first, 0.069 ± 0.15 for the second.

HTCNKCSTSIANQAVRIQEGRYRHPGCYTCADCGLNLKMRGHFWVGDELYCEKHAR and HTCGKCSTSIANQAVRIQEGRYRHPGCYTCADCGLNLKMRGHFWVGDELYCEKHAR are within error of each other in abundance fitness: 0.14 ± 0.09 for the first, -0.028 ± 0.096 for the second.

First: HTCMKCSTSIANQAVRIQEGRYRHPGCYTCADCGLNLKMRGHFWVGDELYCEKHAR
Second: HTCKKCSTSIANQAVRIQEGRYRHPGCYTCADCGLNLKMRGHFWVGDELYCEKHAR
The abundance fitness of the first is higher: 0.093 ± 0.12 for the first, -0.362 ± 0.12 for the second.

HTCIKCSTSIANQAVRIQEGRYRHPGCYTCADCGLNLKMRGHFWVGDELYCEKHAR and HTCYKCSTSIANQAVRIQEGRYRHPGCYTCADCGLNLKMRGHFWVGDELYCEKHAR are within error of each other in abundance fitness: -0.331 ± 0.26 for the first, 0.056 ± 0.22 for the second.

HTCQKCSTSIANQAVRIQEGRYRHPGCYTCADCGLNLKMRGHFWVGDELYCEKHAR and HTCAKCSTSIANQAVRIQEGRYRHPGCYTCADCGLNLKMRGHFWVGDELYCEKHAR are within error of each other in abundance fitness: -0.16 ± 0.093 for the first, -0.245 ± 0.068 for the second.

HTCLKCSTSIANQAVRIQEGRYRHPGCYTCADCGLNLKMRGHFWVGDELYCEKHAR and HRCEKCSTSIANQAVRIQEGRYRHPGCYTCADCGLNLKMRGHFWVGDELYCEKHAR are within error of each other in abundance fitness: -0.473 ± 0.066 for the first, -0.389 ± 0.091 for the second.

HYCEKCSTSIANQAVRIQEGRYRHPGCYTCADCGLNLKMRGHFWVGDELYCEKHAR and HVCEKCSTSIANQAVRIQEGRYRHPGCYTCADCGLNLKMRGHFWVGDELYCEKHAR are within error of each other in abundance fitness: -0.31 ± 0.27 for the first, -0.685 ± 0.13 for the second.

With HSCEKCSTSIANQAVRIQEGRYRHPGCYTCADCGLNLKMRGHFWVGDELYCEKHAR the abundance fitness was -0.559 ± 0.085.
